Measurements taken from US20180237507A1 (CITY OF HOPE, published 2018).

Molecular target: BoNT serotype A (Clostridium botulinum, UniProt P0DPI0 2-1296)
Assay: affinity; method not stated (yeast display affinity maturation)

Sequence of BoNT serotype A (P0DPI0 2-1296 limits assumed): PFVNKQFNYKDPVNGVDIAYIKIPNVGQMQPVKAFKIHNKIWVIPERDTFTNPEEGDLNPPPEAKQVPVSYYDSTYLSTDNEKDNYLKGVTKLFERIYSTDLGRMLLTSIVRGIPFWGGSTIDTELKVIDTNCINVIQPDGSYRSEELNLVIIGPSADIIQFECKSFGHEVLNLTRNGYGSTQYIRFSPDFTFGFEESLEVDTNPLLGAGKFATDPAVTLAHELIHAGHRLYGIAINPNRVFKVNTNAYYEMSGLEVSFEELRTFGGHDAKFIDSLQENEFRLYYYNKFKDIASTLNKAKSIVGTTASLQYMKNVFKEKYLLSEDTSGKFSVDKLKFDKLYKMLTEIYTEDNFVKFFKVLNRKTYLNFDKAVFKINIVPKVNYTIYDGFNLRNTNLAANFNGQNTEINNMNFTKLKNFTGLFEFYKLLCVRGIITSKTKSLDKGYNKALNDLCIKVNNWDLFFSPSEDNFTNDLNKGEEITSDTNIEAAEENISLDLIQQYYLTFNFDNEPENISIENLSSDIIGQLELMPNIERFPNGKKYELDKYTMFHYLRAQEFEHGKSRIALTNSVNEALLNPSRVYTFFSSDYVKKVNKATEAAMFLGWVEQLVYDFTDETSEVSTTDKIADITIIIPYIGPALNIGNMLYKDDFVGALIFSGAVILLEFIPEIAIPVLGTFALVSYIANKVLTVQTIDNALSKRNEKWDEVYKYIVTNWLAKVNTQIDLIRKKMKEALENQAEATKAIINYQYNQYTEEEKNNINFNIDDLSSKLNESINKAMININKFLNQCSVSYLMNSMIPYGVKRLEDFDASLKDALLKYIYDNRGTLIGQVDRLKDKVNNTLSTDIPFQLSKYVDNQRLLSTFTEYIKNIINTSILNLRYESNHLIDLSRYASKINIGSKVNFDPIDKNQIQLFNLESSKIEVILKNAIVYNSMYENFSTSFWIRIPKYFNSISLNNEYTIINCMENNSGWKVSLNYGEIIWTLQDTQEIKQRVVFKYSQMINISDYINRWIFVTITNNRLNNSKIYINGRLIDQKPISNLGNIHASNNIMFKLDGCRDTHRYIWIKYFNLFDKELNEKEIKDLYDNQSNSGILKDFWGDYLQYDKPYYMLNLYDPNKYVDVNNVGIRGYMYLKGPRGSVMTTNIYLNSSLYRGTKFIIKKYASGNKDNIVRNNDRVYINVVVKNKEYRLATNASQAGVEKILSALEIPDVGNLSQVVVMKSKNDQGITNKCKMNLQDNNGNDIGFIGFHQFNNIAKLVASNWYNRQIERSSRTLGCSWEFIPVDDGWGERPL

B1: H7 VHH (VHH)
VHH: QVQLVESGGGLVQVGGSLRLSCVVSGSDISGIAMGWYRQAPGKRREMVADIFSGGSTDYAGSVKGRFTISRDNAKKTSYLQMNNVKPEDTGVYYCRLYGSGDYWGQGTQVTVSS
Q: How did the Kd turn out when B1 was run?
A: The Kd was 0.042 nM.
